Columns and labels:
A. baumannii HUMC1 [1] = test: Lethal bloodstream (i.v. tail-vein) infection model, survival; type: in vivo, mice; settings: i.v. infection; treated i.p. at 1 hr post-infection; C8 150 μg, colistin 0.0125 mg/kg; FIG. 7D
A. baumannii HUMC1 [2] = test: Effects of antibody on colistin MIC; type: cell-based
Method: The minimum inhibitory concentration (MIC) of colistin for A. baumannii HUMC1 was determined in congruence with standard CLSI methodologies. In brief, A. baumannii HUMC1 was passaged in Mueller Hinton II (MH-II) Broth for 3 hr at 37° C. with shaking then diluting to 5×10^5 CFUs/mL. Colistin was serially diluted across rows of a 96-well plate with 0.1, 1, or 10 μg/mL C8 MAb, which was incubated at 37° C. for 24 hr. The MIC value was read as the lowest concentration that prevented visible growth of bacteria.

[3] = molecular target: T1, DHFR-3Loop fusion protein (mouse (DHFR part)); A. baumannii (OmpA …); test: ELISA with DHFR-3Loop as target (data not shown)
T1 construct: also called DHFR-3 Loop protein; recombinant DHFR-3Loop protein
T1 chain: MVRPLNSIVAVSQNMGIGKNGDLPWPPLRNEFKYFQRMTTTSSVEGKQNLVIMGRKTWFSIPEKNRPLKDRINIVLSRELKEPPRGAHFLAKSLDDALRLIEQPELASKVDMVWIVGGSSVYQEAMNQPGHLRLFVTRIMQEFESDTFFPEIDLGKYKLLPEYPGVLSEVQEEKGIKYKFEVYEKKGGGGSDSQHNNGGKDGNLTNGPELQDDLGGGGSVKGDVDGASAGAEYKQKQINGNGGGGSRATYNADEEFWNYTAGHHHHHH

[4] = molecular target: T2, outer membrane protein A (OmpA) of A. baumannii (A. baumannii, UniProt Q6RYW5 20-356); test: ELISA with whole OmpA as target (data not shown)
T2 construct: also called whole OmpA
T2 sequence: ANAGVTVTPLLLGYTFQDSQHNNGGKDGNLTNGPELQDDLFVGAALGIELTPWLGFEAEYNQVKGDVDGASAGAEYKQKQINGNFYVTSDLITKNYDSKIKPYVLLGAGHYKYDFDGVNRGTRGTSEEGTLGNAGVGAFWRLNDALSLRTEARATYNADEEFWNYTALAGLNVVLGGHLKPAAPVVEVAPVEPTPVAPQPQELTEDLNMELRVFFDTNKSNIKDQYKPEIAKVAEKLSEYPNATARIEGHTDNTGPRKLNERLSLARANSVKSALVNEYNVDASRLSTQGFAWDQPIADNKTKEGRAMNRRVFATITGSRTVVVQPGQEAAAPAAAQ

A. baumannii HUMC1 [5] = test: Lethal bloodstream (i.v. tail-vein) infection model, survival; type: in vivo, mice; settings: 2×10^7 HUMC1 i.v.; treated once i.v., approximately 20 μg
Method: To determine if C8 could treat, inhibit and/or prevent A. baumannii induced sepsis, mice were infected i.v. via the tail-vein with 2×10^7 hyper-virulent A. baumannii HUMC1 and were treated once i.v. with either protein-G purified C8 mAb (approximately 10 or 20 μg doses) or an isotype-control antibody in a saline buffer. […] In a second experiment, mice were similarly infected and the C8 MAb was administered once i.v. in saline buffer at a low (5 μg) and very low (0.5 μg) dose.
Male C3HeB/Fe mice (Jackson Labs) between the ages of 7-10 wk were used for all experiments. All animal work was conducted following approval by the Institutional Animal Use and Care Committee at the University of Southern California, in compliance with the recommendations in the Guide for the Care and Use of Laboratory Animals of the National Institutes of Health.
For the bloodstream infection model, mice were infected intravenously via the tail-vein with designated inocula of A. baumannii isolates. An oropharyngeal model of aspiration pneumonia that recapitulates hospital- or ventilator-associated pneumonia (VAP) relevant to ICU populations was used. In brief, mice were sedated with isoflurane, hung by their maxillary incisors, tongues held to prevent swallowing, and 50 μL of bacterial inocula was placed in the trachea to allow inoculation of the organisms into the lungs by reflexive aspiration.

[6] = tested on: A. baumannii cell surface; test: Flow cytometry binding to A. baumannii cell surface; settings: HUMC1 strain
Method: Hybridoma pre-clones were selected for subcloning based on bacterial cell surface reactivity by flow cytometry. Briefly, A. baumannii was passaged to log phase, stained with the bacterial dye SYTO BC (LifeTech #B7277), then stained with pre-clone supernatant from 96-well plates at 4° C., rinsed, and counter-stained with CF 647-conjugated goat anti-mouse IgG (Sigma-Aldrich, #SAB4600182). Control samples were stained with mouse IgG1 isotype control mAb (R&D Systems, #MAB002). Percent positivity was determined by flow cytometry.
Hybridoma cell lines were propagated in 96-well flat-bottom plates in DMEM-20%, and supernatants were harvested from wells for initial flow cytometry screening to identify antibodies that bound to intact bacteria. In brief, A. baumannii isolates were passaged to log phase, stained with the bacterial dye SYTO BC (LifeTech #B7277), and incubated for 1 hr with undiluted supernatants collected from 96-well plates at 4° C. Cells were washed and counter-stained with a secondary antibody, CF647-conjugated goat anti-mouse IgG (Sigma-Aldrich, #SAB4600182). Control samples were stained with a mouse IgG1 isotype control MAb (R&D Systems, #MAB002) as a negative control, and mouse polyclonal HUMC1-immune serum as a positive control for bacterial binding. Hybridomas that tested positive for bacterial binding were subcloned by limiting dilution into 96-well plates to ensure clonality, expanded, and retested to confirm bacterial binding.

## colistin
A. baumannii HUMC1 [1]
  survival, delayed treatment (monotherapy): completely ineffective
A. baumannii HUMC1 [2]; colistin alone
  MIC of colistin against HUMC1: 2 µg/mL
A. baumannii HUMC1 [2]; in the presence of C8 at 0.1 μg/mL
  MIC of colistin against HUMC1: 2 µg/mL
A. baumannii HUMC1 [2]; in the presence of C8 at 1 μg/mL
  MIC of colistin against HUMC1: 2 µg/mL
A. baumannii HUMC1 [2]; in the presence of C8 at 10 μg/mL
  MIC of colistin against HUMC1: 2 µg/mL

B1: 9.1C8 monoclonal antibody (antibody, V domains shown)
VH: EVQLQQSGPELVKPGASVKISCKASGYSFTGYTMNWVKQSHGKSLEWIGRINPYNGDSFYNQKFKGKATLTVDKSSNIAHMEFLSLTSEDSAVYYCGRSGDGPWFAYWGQGTLVTVSA
VL: LPLSLPVSLGDQASISCRSSQSIVHNNGNTYLEWYLQKPGQSPKLLIYKVSNRFSGVPDRFSGSGSGTDFTLKISRVEAEDLGVYYCFQGSHVPLTFGAGTKLEIKGSRS
notes: also called C8 mAb; C8 MAb
[3]
  binding result: no binding
[4]
  binding result: no binding

B2: X1 monoclonal antibody (antibody, V domains shown)
VH: EVQLQQSGPELVKPGASVKISCKASGYSFTGYFMNWVKQSHGKSLEWIGRINPYNGDTFYNQKFKGKATLTVDKSSSTAHMELRSLTSEDSAVYYCARLNYRGAYWGQGTLVTVSA
VL: LPLSLPVSLGDQASISCRSSQSIVHNNGNTYLEWYLQKPGQSPKLLIYKVSNRFSGVPDRFSGSGSGTDFTLKISRVEAEDLGVYYCFQGSHVPLTFGAGTKLEIKGSRS
notes: also called X1 mAb
[3]
  binding result: no binding
[4]
  binding result: no binding

B3: R2D2: mouse IgM monoclonal antibody from hybridoma R2D2 (ATCC PTA-122178); light chain SEQ ID NO:28, heavy chain SEQ ID NO:29 (antibody, listed as Mus musculus)
heavy: QVQLKQSGPGLVQPSQSLSITCTVSGFSLTSYGVHWVRQSPGKGLEWLGVIWSGGSTDYNAAFISRLSISKDNSKSQVFFKMNSLQANDTAIYYCARRRRSTAMDYWGQGTSVTVSSESQSFPN
light: DIGMTQSXSPQDMSVGPKVTMSSKCRKSLLNSRNQKKYLTSDQQKPGQYTKSLGDFASISESRVTDRFIGSGSGTDLPLGWGILPPLPLADYFCQQHYSTP
modifications: not fully specified; (8)..(8) Xaa can be any naturally occurring amino acid
A. baumannii HUMC1 [5]
  protection against infection: protective against infection
[6]
  binding to the cell surface of A. baumannii by flow cytometry: specifically bound

From patent publication US11306137B2, “Antibody binding agents that bind Acinetobactor and uses thereof” (priority 2015, dated 2022)
